# Data published in patent US20040126856A1, “Factor ixa: factor Vllla interaction and methods therefor” (priority 2004, published 2004).
# T1: A2 subunit of factor VIIIa (Homo sapiens, UniProt P00451)
# T1 construct: cleaved by thrombin at R372-S373, R740-S741, and R1689-S1690 to yield factor VIIIa
# T1 sequence (P00451 392-759): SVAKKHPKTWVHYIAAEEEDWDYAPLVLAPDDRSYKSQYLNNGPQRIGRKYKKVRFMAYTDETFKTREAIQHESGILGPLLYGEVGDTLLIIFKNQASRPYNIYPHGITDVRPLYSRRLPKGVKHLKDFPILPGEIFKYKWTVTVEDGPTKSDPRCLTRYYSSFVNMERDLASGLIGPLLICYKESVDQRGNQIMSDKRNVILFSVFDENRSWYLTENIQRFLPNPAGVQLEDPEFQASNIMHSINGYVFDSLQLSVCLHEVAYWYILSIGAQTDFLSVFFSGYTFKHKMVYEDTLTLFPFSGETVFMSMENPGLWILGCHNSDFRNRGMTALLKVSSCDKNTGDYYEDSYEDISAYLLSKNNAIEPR
# T2: A2 subunit of factor VIIIa
# T2 sequence: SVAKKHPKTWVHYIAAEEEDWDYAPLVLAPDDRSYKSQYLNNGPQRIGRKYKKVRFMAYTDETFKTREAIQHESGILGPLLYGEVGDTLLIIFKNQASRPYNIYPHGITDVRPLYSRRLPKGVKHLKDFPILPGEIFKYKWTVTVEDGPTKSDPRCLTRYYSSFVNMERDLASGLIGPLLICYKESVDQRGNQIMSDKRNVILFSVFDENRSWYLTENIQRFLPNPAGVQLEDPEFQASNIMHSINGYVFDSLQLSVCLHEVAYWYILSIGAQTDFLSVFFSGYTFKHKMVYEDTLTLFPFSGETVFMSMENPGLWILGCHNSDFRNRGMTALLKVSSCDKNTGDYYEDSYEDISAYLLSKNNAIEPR
# What was measured:
# [1] = target: T1, A2 subunit of factor VIIIa; test: Apparent KdA2 of dEGR-IXa proteins: inhibition of IXaWT:A2 subunit interaction in the tenase system; assay type: biochemical; settings: 100 nM IXaWT, 30 nM A2 subunit, 250 nM factor X, 25 μM PL; from IC50 by Eq. 3 (FIG. 3); read-out: Apparent KdA2
# Protocol: Determination of KdA2 of Binding of dEGR-IXa Proteins to A2 Subunit.
# The apparent Kd (termed KdA2) for binding of each dEGR-IXa protein to the A2 subunit was determined by its ability to inhibit factor IXaWT:A2 subunit interaction in the tenase complex as described earlier for intact factor VIIIa (Mather and Bajaj, 1999; Mather et al., 1997). The reactions were carried out as described for the EC50 experiments above except dEGR-IXa and IXaWT were mixed prior to addition of the A2 subunit; this ensured steady state conditions. Mixtures contained 100 nM IXaWT, 30 nM A2 subunit, 250 nM factor X, 25 μM PL, and various concentrations of dEGR-IXa proteins in TBS/BSA, pH 7.5 containing 5 mM CaCl2. The IC50 (concentration of inhibitor required for 50% inhibition) was determined by fitting the data to the IC50 four-parameter logistic equation of Halfman (1981) given below (Eq. 2). [formula]
# where y is the rate of Xa formation in the presence of a given concentration of dEGR-IXa protein represented by x, a is the maximum rate of factor Xa formation in the absence of dEGR-IXa, and s is the slope factor. Each point was weighted equally, and the data were fitted to Equation 2 using the nonlinear regression analysis program GraFit from Erithacus Software. […] To obtain KdA2 values for the interaction of dEGR-IXa proteins with A2, we used the following equation (Eq. 3) as described by Cheng and Prusoff (1973) and further elaborated by Craig (1993). [formula]
# where A is the concentration of IXaWT, and EC50 is the concentration of factor IXaWT that gives a 50% maximum response in the absence of the competitor at a specified concentration of factor X used in the experiment.
# [2] = test system: T2, A2 subunit of factor VIIIa
# [3] = target: A2 subunit of factor VIIIa (human) (UniProt P00451); test: factor Xa generation at rising A2 subunit, 5 nM IXa; factor X <150 nM; functional Kd
# [4] = target: A2 subunit of factor VIIIa (human) (UniProt P00451); test: potentiation of factor X activation by A2 subunit (FIGS. 1 and 2); functional Kd
# [5] = target: A2 subunit of factor VIIIa (human) (UniProt P00451); test: factor Xa generation at rising A2 subunit, 5 nM IXa; factor X >1 µM; functional Kd
# [6] = target: T3, dEGR-IXaVIIhelix (factor IXaVIIhelix inactivated with dansyl-Glu-Gly-Arg-chloromethyl ketone) (human, UniProt P08709 364-372, active site inactivated with dansyl-Glu-Gly-Arg-chloromethyl ketone (dEGR-ck); gamma-carboxyglutamic acid residues in the Gla domain (normal Gla content)); test: dEGR-IXa competition with 100 nM IXaWT for 30 nM A2 in tenase assay (FIG. 3); apparent KdA2
# T3 construct: domain: helix c162-170; also called dEGR-IXVIIhelix
# [7] = target: dEGR-IXaR333Q (factor IXaR333Q inactivated with dansyl-Glu-Gly-Arg-chloromethyl ketone) (human, UniProt P00740 47-190; P00740 227-461, active site inactivated with dansyl-Glu-Gly-Arg-chloromethyl ketone (dEGR-ck); gamma-carboxyglutamic acid residues in the Gla domain (normal Gla content)); test: dEGR-IXa competition with 100 nM IXaWT for 30 nM A2 in tenase assay (FIG. 3); IC50 converted by Cheng-Prusoff; apparent KdA2
# [8] = target: T4, dEGR-IXaWT (factor IXaWT inactivated with dansyl-Glu-Gly-Arg-chloromethyl ketone) (human, UniProt P00740 47-190; P00740 227-461, active site inactivated with dansyl-Glu-Gly-Arg-chloromethyl ketone (dEGR-ck); gamma-carboxyglutamic acid residues in the Gla domain (normal Gla content)); test: as above
# T4 construct: also called dEGR-IXWT
# [9] = target: T5, dEGR-IXaPCEGF1 (factor IXaPCEGF1 inactivated with dansyl-Glu-Gly-Arg-chloromethyl ketone) (human, UniProt P04070 88-134, limits assumed, active site inactivated with dansyl-Glu-Gly-Arg-chloromethyl ketone (dEGR-ck); gamma-carboxyglutamic acid residues in the Gla domain (normal Gla content)); test: as above
# T5 construct: domain: EGF1
# [10] = target: T4, dEGR-IXaWT (factor IXaWT inactivated …); test: dansyl fluorescence quenching, 220 nM dEGR-IXa titrated with A2 subunit, bimolecular association fit (FIG. 4)
# Protocol: (§1) The effect of the A2 subunit on the emission intensity of the dansyl moiety in each dEGR-IXa protein was determined using the SLM AB2 spectrofluorometer. Each reaction mixture contained 220 nM dEGR-IXa in 20 mM Hepes, pH 7.2, 100 mM NaCl, 5 mM CaCl₂, 0.01% Tween, 200 μg/ml BSA and 100 μM PL vesicles. The excitation wavelength was 340 nm (slit width, 8 nm) and the emission wavelength was 540 nm (slit width; 8 nm). First, blank values (in triplicate) were obtained for the buffer containing PL. dEGR-IXa was then added and the emission intensity in the absence of the A2 subunit was recorded. Each reaction mixture was subsequently titrated with the A2 subunit and the emission readings (in triplicate) were obtained at each time point. The fluorescence emission intensity at each point was corrected for increases in the reaction volume prior to analysis of the data. […] Data are presented as F/F₀ where F₀ is the emission intensity in the absence of A2 subunit and F is the intensity at a given A2 subunit concentration.
# [11] = target: T5, dEGR-IXaPCEGF1 (factor IXaPCEGF1 …); test: as above
# Protocol: as §1
# T5 sequence (P04070 other isoform, or with tags, fused parts or gaps limits assumed, form in doubt, chain 1 of 2): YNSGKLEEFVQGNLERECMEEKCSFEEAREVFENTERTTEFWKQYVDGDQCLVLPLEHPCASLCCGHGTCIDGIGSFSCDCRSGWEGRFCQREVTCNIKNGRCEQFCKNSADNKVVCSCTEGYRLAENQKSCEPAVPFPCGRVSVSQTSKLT
# T5 sequence (heavy, as listed by the source limits assumed, form in doubt, chain 2 of 2): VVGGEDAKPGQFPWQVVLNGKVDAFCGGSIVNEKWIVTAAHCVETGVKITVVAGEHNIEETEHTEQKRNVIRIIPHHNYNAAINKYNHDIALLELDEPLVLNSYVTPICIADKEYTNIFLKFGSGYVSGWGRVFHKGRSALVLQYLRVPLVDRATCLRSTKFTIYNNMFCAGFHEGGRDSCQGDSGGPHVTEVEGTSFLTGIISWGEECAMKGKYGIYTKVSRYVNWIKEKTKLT
# T4 sequence (P00740 47-190, form in doubt, chain 1 of 2): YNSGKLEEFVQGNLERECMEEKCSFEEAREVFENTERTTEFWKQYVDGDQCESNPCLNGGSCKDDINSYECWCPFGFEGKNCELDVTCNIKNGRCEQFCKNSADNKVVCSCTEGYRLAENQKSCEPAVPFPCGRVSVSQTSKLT
# factor IXaWT (wild-type recombinant factor IX activated by factor XIa), sequence (light): as the sequence (P00740 47-190, form in doubt, chain 1 of 2) above
# T3 sequence (light, as listed by the source limits assumed, form in doubt, chain 1 of 2): as the sequence (P00740 47-190, form in doubt, chain 1 of 2) above
# T3 sequence (heavy, as listed by the source limits assumed, form in doubt, chain 2 of 2): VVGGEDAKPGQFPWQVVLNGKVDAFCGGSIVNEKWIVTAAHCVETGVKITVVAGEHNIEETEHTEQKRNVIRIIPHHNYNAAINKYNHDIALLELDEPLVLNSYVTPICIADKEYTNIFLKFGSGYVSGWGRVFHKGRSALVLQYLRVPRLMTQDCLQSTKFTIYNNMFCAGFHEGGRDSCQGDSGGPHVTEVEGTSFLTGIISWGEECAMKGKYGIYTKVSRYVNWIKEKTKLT
# dEGR-IXaR333Q (factor IXaR333Q inactivated with dansyl-Glu-Gly-Arg-chloromethyl ketone), sequence (P00740 47-190, form in doubt, chain 1 of 2): as the sequence (P00740 47-190, form in doubt, chain 1 of 2) above
# dEGR-IXaR333Q (factor IXaR333Q inactivated with dansyl-Glu-Gly-Arg-chloromethyl ketone), sequence (P00740 227-461 R379Q, form in doubt, chain 2 of 2): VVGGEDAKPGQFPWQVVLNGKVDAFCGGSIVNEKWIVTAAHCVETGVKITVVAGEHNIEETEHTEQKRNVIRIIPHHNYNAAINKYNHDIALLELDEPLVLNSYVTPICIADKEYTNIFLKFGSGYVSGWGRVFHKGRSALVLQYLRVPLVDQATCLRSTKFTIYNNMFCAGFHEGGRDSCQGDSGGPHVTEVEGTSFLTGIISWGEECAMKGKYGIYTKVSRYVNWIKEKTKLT
molecule,measurement,setting,value
dEGR-IXaPCEGF1: IXaPCEGF1 inactivated with dEGR-ck,Kd,[1],~100 nM
dEGR-IXaR333Q: IXaR333Q inactivated with dEGR-ck,Kd,[1],~1800 nM
dEGR-IXaWT: IXaWT inactivated with dansyl-Glu-Gly-Arg-chloromethyl ketone (dEGR-ck),Kd,[1],~100 nM
factor IXaPCEGF1 (factor IXa replacement mutant in which the EGF1 domain is replaced by that of protein C),"enhancement of factor X activation (factor Xa generation, S-2222 hydrolysis)",[2],The presence of the A2 subunit in the reaction mixtures enhanced the factor X-activating activity of IXaPCEGF1 to the same extent as that of IXaWT
factor IXaPCEGF1 (factor IXa replacement mutant in which the EGF1 domain is replaced by that of protein C) (from UniProt P04070 88-134) (enzyme),EC50,[3],300 nM
same,EC50,[4],250 nM
same,EC50,[5],200 nM
factor IXaVIIhelix (factor IXa replacement mutant in which helix 330-338 (c162-170) is replaced by that of factor VII),"enhancement of factor X activation (factor Xa generation, S-2222 hydrolysis)",[2],it was absent for the IXaVIIhelix
factor IXaWT (wild-type recombinant factor IX activated by factor XIa),"enhancement of factor X activation (factor Xa generation, S-2222 hydrolysis)",[2],The presence of the A2 subunit in the reaction mixtures enhanced the factor X-activating activity of IXaPCEGF1 to the same extent as that of IXaWT
"A2 subunit of factor VIIIa (other, also called isolated A2 subunit) SVAKKHPKTWVHYIAAEEEDWDYAPLVLAPDDRSYKSQYLNNGPQRIGRKYKKVRFMAYTDETFKTREAIQHESGILGPLLYGEVGDTLLIIFKNQASRPYNIYPHGITDVRPLYSRRLPKGVKHLKDFPILPGEIFKYKWTVTVEDGPTKSDPRCLTRYYSSFVNMERDLASGLIGPLLICYKESVDQRGNQIMSDKRNVILFSVFDENRSWYLTENIQRFLPNPAGVQLEDPEFQASNIMHSINGYVFDSLQLSVCLHEVAYWYILSIGAQTDFLSVFFSGYTFKHKMVYEDTLTLFPFSGETVFMSMENPGLWILGCHNSDFRNRGMTALLKVSSCDKNTGDYYEDSYEDISAYLLSKNNAIEPR",Kd,[6],> 1000 nM
same,Kd,[7],1850 nM
same,Kd,[8],100 nM
same,Kd,[9],114 nM
same,Kd,[10],~100 nM
same,Kd,[11],~100 nM
